Legend:
[1] = target: Rab1a(1–204)-Q70L-C26S-C126S (human) (UniProt P62820)
[2] = target: Rab5a(1–212)-Q79L-C19S-C63S (human) (UniProt P20339)
Rab5a(1–212)-Q79L-C19S-C63S (human), sequence (P20339 1-212 C19S/C63S/Q79L): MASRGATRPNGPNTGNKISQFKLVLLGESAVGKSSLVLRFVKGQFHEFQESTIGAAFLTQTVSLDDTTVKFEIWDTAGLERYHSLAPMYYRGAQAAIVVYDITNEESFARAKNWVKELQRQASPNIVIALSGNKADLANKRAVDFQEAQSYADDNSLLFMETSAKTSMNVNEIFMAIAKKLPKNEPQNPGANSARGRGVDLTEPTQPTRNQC

human VPS34 complex I (VPS34/VPS15/Beclin 1/ATG14L), sequence (Q8NEB9 whole entry): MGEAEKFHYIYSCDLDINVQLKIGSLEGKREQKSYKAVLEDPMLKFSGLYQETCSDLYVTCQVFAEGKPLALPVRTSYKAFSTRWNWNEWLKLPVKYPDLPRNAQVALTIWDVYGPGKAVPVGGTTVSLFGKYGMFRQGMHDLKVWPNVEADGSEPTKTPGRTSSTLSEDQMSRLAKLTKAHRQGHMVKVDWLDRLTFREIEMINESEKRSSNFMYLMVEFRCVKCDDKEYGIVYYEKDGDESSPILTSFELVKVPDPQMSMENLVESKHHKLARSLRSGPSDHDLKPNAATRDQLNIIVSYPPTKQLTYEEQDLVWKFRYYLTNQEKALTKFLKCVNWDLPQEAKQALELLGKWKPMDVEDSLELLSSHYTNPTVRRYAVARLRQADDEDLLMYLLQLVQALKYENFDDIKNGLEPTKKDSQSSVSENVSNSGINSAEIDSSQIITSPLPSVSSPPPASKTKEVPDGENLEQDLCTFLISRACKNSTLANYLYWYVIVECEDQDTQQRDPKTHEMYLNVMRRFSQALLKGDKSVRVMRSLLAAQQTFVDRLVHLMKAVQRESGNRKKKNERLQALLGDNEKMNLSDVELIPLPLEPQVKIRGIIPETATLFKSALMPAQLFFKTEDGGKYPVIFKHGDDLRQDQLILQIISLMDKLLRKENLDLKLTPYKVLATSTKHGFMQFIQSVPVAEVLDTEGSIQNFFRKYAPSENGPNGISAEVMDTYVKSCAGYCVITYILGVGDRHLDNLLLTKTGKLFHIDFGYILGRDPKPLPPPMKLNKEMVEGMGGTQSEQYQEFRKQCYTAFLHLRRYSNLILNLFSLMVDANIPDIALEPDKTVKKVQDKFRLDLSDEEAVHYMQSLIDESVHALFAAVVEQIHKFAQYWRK
human VPS34 complex I (VPS34/VPS15/Beclin 1/ATG14L), sequence (Q99570 whole entry): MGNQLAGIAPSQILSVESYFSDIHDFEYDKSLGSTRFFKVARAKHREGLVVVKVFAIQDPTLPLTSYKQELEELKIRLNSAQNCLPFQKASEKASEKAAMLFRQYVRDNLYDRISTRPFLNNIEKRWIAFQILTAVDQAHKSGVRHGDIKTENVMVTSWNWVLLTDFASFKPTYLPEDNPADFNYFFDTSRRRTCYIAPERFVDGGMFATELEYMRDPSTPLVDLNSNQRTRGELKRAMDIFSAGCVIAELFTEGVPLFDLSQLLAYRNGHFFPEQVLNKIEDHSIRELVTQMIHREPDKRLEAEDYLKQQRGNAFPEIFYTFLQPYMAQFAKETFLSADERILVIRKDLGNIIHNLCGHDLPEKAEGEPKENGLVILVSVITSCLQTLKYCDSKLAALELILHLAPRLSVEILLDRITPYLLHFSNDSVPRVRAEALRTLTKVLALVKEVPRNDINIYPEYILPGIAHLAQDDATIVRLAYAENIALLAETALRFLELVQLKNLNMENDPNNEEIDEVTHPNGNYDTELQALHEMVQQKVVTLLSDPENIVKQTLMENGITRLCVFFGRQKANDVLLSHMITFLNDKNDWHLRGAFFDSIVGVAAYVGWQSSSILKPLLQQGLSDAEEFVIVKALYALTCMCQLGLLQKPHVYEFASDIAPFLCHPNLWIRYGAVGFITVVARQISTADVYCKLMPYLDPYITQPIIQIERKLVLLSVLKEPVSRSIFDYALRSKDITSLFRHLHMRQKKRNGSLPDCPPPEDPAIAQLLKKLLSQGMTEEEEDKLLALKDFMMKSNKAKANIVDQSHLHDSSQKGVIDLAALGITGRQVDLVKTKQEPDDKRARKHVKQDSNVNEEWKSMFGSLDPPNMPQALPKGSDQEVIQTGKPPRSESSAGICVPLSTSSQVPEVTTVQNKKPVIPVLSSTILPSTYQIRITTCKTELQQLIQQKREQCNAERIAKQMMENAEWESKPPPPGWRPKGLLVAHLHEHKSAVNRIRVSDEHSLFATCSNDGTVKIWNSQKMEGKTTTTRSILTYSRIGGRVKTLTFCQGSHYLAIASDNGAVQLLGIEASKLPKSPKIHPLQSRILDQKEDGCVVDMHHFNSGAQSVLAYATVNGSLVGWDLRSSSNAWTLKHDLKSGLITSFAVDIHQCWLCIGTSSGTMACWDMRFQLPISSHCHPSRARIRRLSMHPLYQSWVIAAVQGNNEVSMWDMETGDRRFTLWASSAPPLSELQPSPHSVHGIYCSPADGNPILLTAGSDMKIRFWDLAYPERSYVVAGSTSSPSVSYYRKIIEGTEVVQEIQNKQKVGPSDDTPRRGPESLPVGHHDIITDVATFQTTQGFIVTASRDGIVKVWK
human VPS34 complex I (VPS34/VPS15/Beclin 1/ATG14L), sequence (Q14457 whole entry): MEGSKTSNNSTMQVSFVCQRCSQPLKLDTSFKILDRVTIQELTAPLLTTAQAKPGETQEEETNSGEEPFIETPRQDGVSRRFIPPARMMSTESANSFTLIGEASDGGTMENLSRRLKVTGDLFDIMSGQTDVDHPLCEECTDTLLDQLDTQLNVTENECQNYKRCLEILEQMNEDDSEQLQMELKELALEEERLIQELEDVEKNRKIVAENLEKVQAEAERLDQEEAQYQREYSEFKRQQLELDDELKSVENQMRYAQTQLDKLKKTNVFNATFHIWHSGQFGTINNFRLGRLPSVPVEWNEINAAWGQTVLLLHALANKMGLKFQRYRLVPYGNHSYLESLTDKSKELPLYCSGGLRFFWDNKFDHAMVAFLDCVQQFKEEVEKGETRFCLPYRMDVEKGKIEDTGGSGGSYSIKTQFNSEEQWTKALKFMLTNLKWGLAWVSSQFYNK
human VPS34 complex I (VPS34/VPS15/Beclin 1/ATG14L), sequence (Q6ZNE5 whole entry): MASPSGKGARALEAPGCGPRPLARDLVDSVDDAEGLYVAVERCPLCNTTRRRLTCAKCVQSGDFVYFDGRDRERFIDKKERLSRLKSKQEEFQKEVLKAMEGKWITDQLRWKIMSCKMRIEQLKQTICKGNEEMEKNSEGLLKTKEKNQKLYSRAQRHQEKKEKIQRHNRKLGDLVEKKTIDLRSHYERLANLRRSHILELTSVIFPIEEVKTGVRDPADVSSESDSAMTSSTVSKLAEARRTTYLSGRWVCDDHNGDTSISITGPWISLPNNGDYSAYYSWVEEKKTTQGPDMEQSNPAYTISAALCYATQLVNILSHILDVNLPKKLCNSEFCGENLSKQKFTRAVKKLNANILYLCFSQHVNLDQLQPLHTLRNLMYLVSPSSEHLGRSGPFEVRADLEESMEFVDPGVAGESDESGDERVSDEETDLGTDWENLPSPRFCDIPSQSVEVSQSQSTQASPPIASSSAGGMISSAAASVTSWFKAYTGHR
Rab1a(1–204)-Q70L-C26S-C126S (human), sequence (P62820 1-204 C26S/Q70L/C126S): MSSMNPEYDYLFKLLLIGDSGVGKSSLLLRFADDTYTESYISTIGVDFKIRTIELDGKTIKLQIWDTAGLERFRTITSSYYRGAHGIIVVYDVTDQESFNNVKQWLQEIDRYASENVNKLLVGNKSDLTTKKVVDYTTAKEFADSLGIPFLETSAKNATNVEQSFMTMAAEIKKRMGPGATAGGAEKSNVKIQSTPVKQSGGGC

| Substance | GUV-based lipid kinase activity of complex I, fold activation by Rab1a–GDP on the GUVs [1] | GUV-based lipid kinase activity of complex I, fold activation by Rab1a–GTP on the GUVs [1] | GUV-based lipid kinase activity, activation of complex II REIE > AAAA by Rab5a–GTP against wild-type complex II [2] |
| --- | --- | --- | --- |
| human VPS34 complex I (VPS34/VPS15/Beclin 1/ATG14L) (from UniProt Q8NEB9 1-887; Q99570 1-1358; Q14457 1-450; Q6ZNE5 1-492) | 3 fold | 11 fold | – |
| complex II REIE > AAAA (VPS34 199-REIE-202 to alanine/VPS15/Beclin 1/UVRAG) (from UniProt Q8NEB9 1-887; Q99570 1-1358; Q14457 1-450; Q9P2Y5 1-699) | – | – | 4 fold |

Reference: article PMC7946940
